Tests used:
Type in all cases: biochemical
[1] = Endoglucanase activity on carboxymethyl cellulose; conditions: purified endoglucanase, 50° C., procedure of IUPAC 1987
In short: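 Endoglucanase activity of purified enzymes from Acremonium thermophilum ALKO4245 and Thermoascus aurantiacus ALKO4242 measured on carboxymethyl cellulose by the IUPAC 1987 standard procedure. Protein by Lowry for purified preparations; the A. thermophilum supernatant was pre-incubated 24 h at 70 °C before purification.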

[2] = pH optimum of heterologously produced endoglucanases; conditions: McIlvaine's buffer, pH range 4.0-8.0, CMC, 10 min, 50° C.
Description: (§1) The pH optimum of the heterologously produced endoglucanases was determined in the universal McIlvaine's buffer within a pH range of 4.0-8.0 using carboxymethylcellulose as substrate. As shown in FIG. 6 A the broadest pH range (4.5-6.0) is that of the Acremonium EG—40/Cel45A protein, the optimum being at pH 5.5. The pH optima for the other heterologously produced endoglucanases are pH 5.0-5.5 and 6.0 for Acremonium EG—40_like/Cel45B and Thermoascus EG—28/Cel5A, respectively. The optimal temperature for enzymatic activity of these endoglucanases was determined at the temperature range of 50-85° C. as described above. The highest activity of the enzymes was determined to be at 75° C., 60° C., and 75° C. for the Acremonium EG—40/Cel45A, EG—40 like/Cel45B, and Thermoascus EG—28/Cel5A, respectively (FIG. 6 B).

[3] = Temperature optimum of heterologously produced endoglucanases; conditions: temperature range 50-85° C., CMC
Description: as §1

[4] = Hydrolysis with endoglucanase preparations, spruce; conditions: 48 h, 45° C., pH 5.0
Description: (§2) The preparations containing the endoglucanases were compared in hydrolysis studies mixed with the purified CBH/Cel7 and CBH/Cel6 enzymes on several pre-treated substrates. Culture filtrates of T. reesei, containing different cloned endoglucanase enzymes were obtained as described in Example 19. The enzymes were enriched by removing thermolabile proteins from the mixtures by a heat treatment (60° C., 2 h, pH 5) and the supernatant was used for the hydrolysis studies. In addition, pure T. reesei cellulases (purified as described by Suurnäkki et al., 2000) were used in the enzyme mixtures. The endoglucanases used in the experiment were:
Washed steam pre-treated spruce fibre (impregnation with 3% SO2 for 20 min, followed by steam pre-treatment at 215° C. for 5 min), dry matter 25.9% (SPRUCE).
(§3) The endoglucanases to be studied (dosage 840 nkat/g dry matter, based on endoglucanase activity against HEC according to IUPAC, 1987) were used either with cellobiohydrolases of T. reesei (CBHI/Cel7A, 8.1 mg/g d.m. and CBHII/Cel6A, 2.0 mg/g d.m.) or with Thermoascus aurantiacus Cel7A with genetically attached CBD of T. reesei (10.1 mg/g d.m.). Purified (Suurnäkki et al., 2000) EGI (Cel7B) and EGII (Cel5A) of T. reesei were also included in the experiments for comparison. All mixtures were supplemented with additional β-glucosidase from Novozym 188 (to make the total β-glucosidase dosage 560 nkat/g d.w., the relatively high dosage was used to compensate the differences in the background activities of the different EG preparations). Triplicate tubes were incubated in mixing at 45° C. for 48 h and reference samples with inactivated enzymes and corresponding substrates were prepared. The release of hydrolysis products was measured as reducing sugars with DNS method using glucose as standard (Table 31).

[5] = Hydrolysis with endoglucanase preparations, corn stover; conditions: with CBHI and CBHII of T. reesei; 48 h, 45° C., pH 5.0
Description: as §2
Steam exploded corn stover fibre (steam pre-treatment at 210° C. for 5 min), dry matter 31.0% (SECS).
as §3

B1: Ta EG_28: endoglucanase of Thermoascus aurantiacus ALKO4242, gene Ta cel5A, amino acid SEQ ID NO: 10 (protein)
chain: MKLGSLVLALSAARLTLSAPLADRKQETKRAKVFQWFGSNESGAEFGSQNLPGVEGKDYIWPDPNTIDTLISKGMNIFRVPFMMERLVPNSMTGSPDPNYLADLIATVNAITQKGAYAVVDPHNYGRYYNSIISSPSDFQTFWKTVASQFASNPLVIFDTNNEYHDMDQTLVLNLNQAAIDGIRSAGATSQYIFVEGNSWTGAWTWTNVNDNMKSLTDPSDKIIYEMHQYLDSDGSGTSATCVSSTIGQERITSATQWLRANGKKGIIGEFAGGANDVCETAITGMLDYMAQNTDVWTGAIWWAAGPWWGDYIFSMEPDNGIAYQQILPILTPYL
Specific activity on CMC [1]: 4290 nkat/mg | pH optimum [2]: 6.0 | Temperature of highest activity [3]: 75 °C | Hydrolysis products as reducing sugars, SPRUCE ([4]; with CBHI and CBHII of T. reesei): 3.0 mg/mL | Hydrolysis products as reducing sugars, SPRUCE ([4]; with T. aurantiacus Cel7A + Tr CBD): 1.5 mg/mL | Hydrolysis products as reducing sugars, SECS [5]: 3.9 mg/mL

— patent US8409836B2, “Treatment of cellulosic material and enzymes useful therein” (Roal Oy, priority 2005, dated 2013)
